Experimental data published in the supplement of paper PMC10567573.

B1: FCHO1 (parent)
chain: HLELTRKLQDLIKDVLRYGEEQLK
B2: ZNF232 (parent)
chain: HSGEKPFICKECGKAYGWCSELIR

Variants of: B1
Experiment: protein stability index of a GFP-peptide fusion (GPS, HEK-293T) (PSI 1-6); higher = more stable
Conditions: c terminus: a fixed tail appended
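Further: lentivirally expressed fusions sorted by FACS into six bins by GFP to DsRed ratio, PSI derived from sequencing read proportions per bin multiplied by bin number.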

First: L2W
Second: L2R
The protein stability index of the first is lower: 1.41 for the first, 2.11 for the second.

Going from L2A to L2I, the protein stability index falls from 2.42 to 1.87.

Compared with L2T, L2D is higher in protein stability index: 2.88 for the first, 2.92 for the second.

First: L2M
Second: L2K
The protein stability index of the first is higher: 5.22 for the first, 2.13 for the second.

Going from L2G to L2Y, the protein stability index falls from 3.28 to 2.04.

Going from L2F to L2E, the protein stability index rises from 1.95 to 2.63.

Compared with L2V, L2Q is lower in protein stability index: 3.29 for the first, 2.94 for the second.

First: L2N
Second: L2H
The protein stability index of the first is higher: 2.76 for the first, 1.64 for the second.

First: L2C
Second: H1W
The protein stability index of the first is higher: 3.33 for the first, 1.9 for the second.

Going from H1P to H1Y, the protein stability index rises from 1.79 to 2.02.

First: H1V
Second: H1M
The protein stability index of the first is lower: 1.31 for the first, 2.23 for the second.

Compared with H1F, H1K is lower in protein stability index: 1.99 for the first, 1.46 for the second.

Going from H1D to H1N, the protein stability index rises from 2.68 to 3.04.

First: H1Q
Second: H1R
The protein stability index of the first is lower: 2.8 for the first, 5.3 for the second.

First: H1L
Second: H1I
The protein stability index of the first is lower: 1.55 for the first, 1.74 for the second.

First: H1E
Second: H1T
The protein stability index of the first is higher: 2.81 for the first, 2.28 for the second.

First: H1G
Second: H1S
The protein stability index of the first is lower: 2.03 for the first, 2.96 for the second.

Going from E3L to E3T, the protein stability index rises from 2.7 to 3.33.

Compared with E3S, E3H is lower in protein stability index: 3.71 for the first, 3.08 for the second.

Compared with E3P, E3W is higher in protein stability index: 2.72 for the first, 2.83 for the second.

First: E3N
Second: E3Q
The protein stability index of the first is lower: 3.5 for the first, 3.73 for the second.

First: E3K
Second: E3C
The protein stability index of the first is lower: 2.17 for the first, 2.31 for the second.

First: E3I
Second: E3M
The protein stability index of the first is lower: 2.88 for the first, 3.36 for the second.

Going from E3A to E3R, the protein stability index falls from 2.96 to 2.74.

Compared with E3V, E3D is higher in protein stability index: 2.56 for the first, 2.84 for the second.

First: E3Y
Second: E3F
The protein stability index of the first is lower: 2.52 for the first, 2.54 for the second.

First: L4S
Second: L4H
The protein stability index of the first is lower: 2.76 for the first, 3.01 for the second.

Going from L4W to L4Q, the protein stability index falls from 3.23 to 2.58.

First: L4I
Second: L4M
The protein stability index of the first is lower: 2.12 for the first, 2.21 for the second.

Compared with L4C, L4K is lower in protein stability index: 4.01 for the first, 1.43 for the second.

Going from L4D to L4P, the protein stability index falls from 2.01 to 1.58.

Going from L4V to L4T, the protein stability index falls from 3.17 to 1.55.

First: L4Y
Second: L4N
The protein stability index of the first is higher: 2.41 for the first, 1.75 for the second.

First: L4G
Second: L4F
The protein stability index of the first is lower: 2.02 for the first, 3.76 for the second.

First: L4E
Second: T5P
The protein stability index of the first is lower: 1.46 for the first, 1.94 for the second.

First: T5I
Second: T5N
The protein stability index of the first is higher: 2.38 for the first, 2.14 for the second.

Compared with T5G, T5M is higher in protein stability index: 2.48 for the first, 3.28 for the second.

Going from T5H to T5E, the protein stability index falls from 3.29 to 1.88.

Compared with T5C, T5L is higher in protein stability index: 2.55 for the first, 3.42 for the second.

Going from T5A to T5F, the protein stability index rises from 1.89 to 2.34.

Going from T5K to T5D, the protein stability index falls from 5.01 to 2.53.

Variants of: B2
Experiment: as above
Conditions: c terminus: a fixed tail appended

Going from R24W to R24N, the protein stability index falls from 2.09 to 2.03.

Compared with R24P, R24Q is lower in protein stability index: 2.66 for the first, 2.44 for the second.

Going from R24V to R24L, the protein stability index falls from 2.02 to 1.71.

Going from R24I to R24M, the protein stability index falls from 1.99 to 1.74.

Going from R24D to R24Y, the protein stability index falls from 2.85 to 1.61.

First: R24C
Second: R24K
The protein stability index of the first is higher: 4.05 for the first, 2.08 for the second.

Going from R24G to R24E, the protein stability index rises from 1.45 to 2.33.

First: R24F
Second: R24T
The protein stability index of the first is lower: 2.23 for the first, 2.32 for the second.

Compared with R24A, R24S is higher in protein stability index: 1.86 for the first, 2.23 for the second.

Compared with R24H, L22V is lower in protein stability index: 3.51 for the first, 2.09 for the second.

Going from L22M to L22E, the protein stability index rises from 2.08 to 2.11.

Compared with L22D, L22I is lower in protein stability index: 2.3 for the first, 1.73 for the second.

Compared with L22G, L22P is higher in protein stability index: 2 for the first, 3.26 for the second.

First: L22F
Second: L22A
The protein stability index of the first is lower: 1.94 for the first, 2.24 for the second.

First: L22W
Second: L22Y
The protein stability index of the first is lower: 1.67 for the first, 2.18 for the second.

First: L22Q
Second: L22H
The protein stability index of the first is lower: 1.65 for the first, 3.29 for the second.

Compared with L22S, L22C is higher in protein stability index: 1.92 for the first, 4.76 for the second.

Going from L22N to L22T, the protein stability index falls from 1.81 to 1.72.

Compared with L22R, L22K is lower in protein stability index: 2.08 for the first, 1.96 for the second.

Compared with E21P, E21H is higher in protein stability index: 2.5 for the first, 3.87 for the second.

First: E21I
Second: E21V
The protein stability index of the first is lower: 2.07 for the first, 2.84 for the second.

Compared with E21Y, E21G is higher in protein stability index: 2.12 for the first, 2.18 for the second.

Compared with E21D, E21W is higher in protein stability index: 1.86 for the first, 2.11 for the second.

Compared with E21R, E21Q is higher in protein stability index: 1.99 for the first, 2.31 for the second.

Going from E21L to E21F, the protein stability index falls from 2.2 to 1.92.

Compared with E21K, E21S is lower in protein stability index: 2.26 for the first, 1.21 for the second.

Compared with E21C, E21A is lower in protein stability index: 2.8 for the first, 2.27 for the second.

Going from E21T to E21N, the protein stability index falls from 2.3 to 1.38.

First: E21M
Second: I23N
The protein stability index of the first is higher: 2.07 for the first, 1.97 for the second.

I23V and I23M are the same in protein stability index: 1.97 for the first, 1.97 for the second.

First: I23A
Second: I23L
The protein stability index of the first is lower: 2.04 for the first, 2.31 for the second.

First: I23Y
Second: I23G
The protein stability index of the first is lower: 1.82 for the first, 2.09 for the second.

Compared with I23F, I23Q is higher in protein stability index: 1.98 for the first, 2.58 for the second.

Compared with I23T, I23R is higher in protein stability index: 1.89 for the first, 2 for the second.

Going from I23E to I23D, the protein stability index rises from 2.24 to 2.5.

Going from I23P to I23H, the protein stability index rises from 2.28 to 2.71.

Going from I23C to I23K, the protein stability index falls from 3.64 to 2.45.

Going from I23W to I23S, the protein stability index falls from 2.3 to 1.78.

Compared with S20R, S20V is lower in protein stability index: 3.24 for the first, 2 for the second.

Going from S20Y to S20T, the protein stability index rises from 1.7 to 2.11.

Going from S20W to S20P, the protein stability index rises from 1.77 to 1.87.

Compared with S20Q, S20M is lower in protein stability index: 1.98 for the first, 1.75 for the second.

Work on S20N yielded a protein stability index of 2.1.
